{"source": "patent US20130344125A1", "about": "“DRUG DELIVERY DEVICE” (priority 2010, published 2013)", "experiment": "Particle size and size distribution of nano-lipobubbles by dynamic light scattering (Zetasizer NanoZS)", "format": "physicochemical", "details": "25° C., deionized water, extruded through 0.22 μm filter", "description": "Particle size and size distribution of synthetic peptide ligands, non-targeted nano-lipobubbles and targeted nano-lipobubbles were analyzed by a Zetasizer NanoZS instrument (Malvern Instruments (Pty) Ltd., Worcestershire, UK) at 25° C. Samples were suspended in deionized water, and then extruded through a 0.22 μm pore size polycarbonate membrane filter prior to analysis. Each analysis was performed in triplicate.\nThe physicochemical properties of the targeted nano-lipobubbles in terms of size distribution and zeta-potential were examined using the standard method of dynamic light scattering measurement (Zetasizer NanoZS, Malvern Instrument). […] The diameter of synthetic peptide ligand (KVLFLS 9 SEQ ID NO: 2)) alone was in the range of 366±41 nm. When 1 mol % of the linear synthetic peptide ligand incorporated or coupled with circular non-targeted nano-lipobubbles to generate targeted nano-lipobubbles, the size distribution increased from 129 nm to 270 nm when it was compared with non-targeted nano-lipobubbles. This confirms the successfully incorporation of the synthetic peptide ligand on the surface of non-targeted nano-lipobubbles. The overall zeta potential or surface charge of the targeted nano-lipobubbles was −29 mV.", "note": "Where no end group is shown, it is not given here."}
{"substance": "KVLFLS (KVLFLS-NH2) [Synthetic 6 amino acid peptide ligand from human apolipoprotein A-1 targeting the SEC receptor]", "values": [{"measurement": "diameter (size distribution)", "value": "366±41", "unit": "nm"}]}
